Consider one substance from US20220267469A1.

Experiment [1] has as its target Biotinylated human BSSL (human) (UniProt P19835). The experiment in a line: flow cytometry displacement assay; 3.0 ug antibody, 1 ug b-hBSSL. (In general: A flow cytometer gives signals particle by particle.)
Experiment [2] shares this target. The experiment can be described thus: flow cytometry displacement assay; 1.0 ug antibody, 1 ug b-hBSSL.
The target is the same in experiment [3]. The experiment in a line: flow cytometry displacement assay; 1.5 ug antibody, 1 ug b-hBSSL.
Experiment [4] shares this target. The experiment can be described thus: flow cytometry displacement assay; 0.5 ug antibody, 1 ug b-hBSSL.
The target is the same in experiment [5]. The experiment in a line: flow cytometry displacement assay; 2.0 ug antibody, 1 ug b-hBSSL.

Chain of Biotinylated human BSSL (human) (P19835 other isoform, or with tags, fused parts or gaps): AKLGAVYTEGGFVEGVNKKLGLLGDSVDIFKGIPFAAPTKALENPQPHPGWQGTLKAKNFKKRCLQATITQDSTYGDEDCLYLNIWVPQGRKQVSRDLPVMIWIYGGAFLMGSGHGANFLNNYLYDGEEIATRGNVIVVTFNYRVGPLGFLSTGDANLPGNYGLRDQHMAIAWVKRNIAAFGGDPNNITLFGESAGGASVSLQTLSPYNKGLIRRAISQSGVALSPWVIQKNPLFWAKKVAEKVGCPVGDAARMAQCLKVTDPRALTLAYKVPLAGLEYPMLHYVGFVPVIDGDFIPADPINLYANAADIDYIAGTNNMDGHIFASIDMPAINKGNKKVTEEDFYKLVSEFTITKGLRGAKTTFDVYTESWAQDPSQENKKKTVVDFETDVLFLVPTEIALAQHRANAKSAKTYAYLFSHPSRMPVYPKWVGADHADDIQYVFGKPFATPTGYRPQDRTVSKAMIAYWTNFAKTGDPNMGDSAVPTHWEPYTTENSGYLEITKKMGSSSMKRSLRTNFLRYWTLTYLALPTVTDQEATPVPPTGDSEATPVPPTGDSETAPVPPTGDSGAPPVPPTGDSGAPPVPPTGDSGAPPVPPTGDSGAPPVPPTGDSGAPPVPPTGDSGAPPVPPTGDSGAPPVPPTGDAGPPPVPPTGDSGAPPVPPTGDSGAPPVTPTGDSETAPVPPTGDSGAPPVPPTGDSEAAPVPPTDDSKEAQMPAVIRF

In the case of “anti-human alpha-synuclein mlgG1 (antibody)”, the percentage reduction of b-hBSSL binding to CD14+ monocytes is -7% in experiment [1]; -2% in experiment [2]; -4% in experiment [3]; -8% in experiment [4]; -1% in experiment [5].
